From US10072073
One block for each molecule: values may come before it.

How the values were obtained:
[1] = target: CD55 (UniProt P08174); assay: indirect immunofluorescence flow cytometry on H69 lung tumour cells, mAb 5 µg/ml
[2] = target: CD55 (UniProt P08174); assay: indirect immunofluorescence flow cytometry on AGS gastric tumour cells, mAb 5 µg/ml
[3] = target: CD55 (UniProt P08174); assay: indirect immunofluorescence flow cytometry on MCF7 breast tumour cells, mAb 5 µg/ml
[4] = target: CD55 (UniProt P08174); assay: indirect immunofluorescence flow cytometry on ST16 gastric tumour cells, mAb 5 µg/ml
[5] = target: CD55 (UniProt P08174); assay: indirect immunofluorescence flow cytometry on MKN45 gastric tumour cells, mAb 5 µg/ml
[6] = target: CD55 (UniProt P08174); assay: indirect immunofluorescence flow cytometry on OAW42 ovarian tumour cells, mAb 5 µg/ml
[7] = target: CD55 (UniProt P08174); assay: indirect immunofluorescence flow cytometry on OVCAR3 ovarian tumour cells, mAb 5 µg/ml
[8] = target: CD55 (UniProt P08174); assay: indirect immunofluorescence flow cytometry on OVCAR4 ovarian tumour cells, mAb 5 µg/ml
[9] = target: CD55 (UniProt P08174); assay: indirect immunofluorescence flow cytometry on C170 colorectal tumour cells, mAb 5 µg/ml
[10] = target: CD55 (UniProt P08174); assay: indirect immunofluorescence flow cytometry on HT29 colorectal tumour cells, mAb 5 µg/ml
[11] = target: CD55 (UniProt P08174); assay: indirect immunofluorescence flow cytometry on OVCA433 ovarian tumour cells, mAb 5 µg/ml
[12] = target: CD55 (UniProt P08174); assay: indirect immunofluorescence flow cytometry on ASPC1 pancreatic tumour cells, mAb 5 µg/ml
[13] = target: CD55 (UniProt P08174); assay: indirect immunofluorescence flow cytometry on Panc1 pancreatic tumour cells, mAb 5 µg/ml
[14] = target: CD55 (UniProt P08174); assay: indirect immunofluorescence flow cytometry on MB-MDA-231 breast tumour cells, mAb 5 µg/ml
[15] = target: CD55 (UniProt P08174); assay: indirect immunofluorescence flow cytometry on Colo201 colorectal tumour cells, mAb 5 µg/ml
[16] = target: CD55 (UniProt P08174); assay: indirect immunofluorescence flow cytometry on Colo205 colorectal tumour cells, mAb 5 µg/ml
[17] = target: human class I histocompatibility antigens (HLA-A,B,C) (human); assay: indirect immunofluorescence flow cytometry on H69 lung tumour cells, mAb 1 µg/ml
[18] = target: human class I histocompatibility antigens (HLA-A,B,C) (human); assay: indirect immunofluorescence flow cytometry on AGS gastric tumour cells, mAb 1 µg/ml
[19] = target: human class I histocompatibility antigens (HLA-A,B,C) (human); assay: indirect immunofluorescence flow cytometry on MCF7 breast tumour cells, mAb 1 µg/ml
[20] = target: human class I histocompatibility antigens (HLA-A,B,C) (human); assay: indirect immunofluorescence flow cytometry on ST16 gastric tumour cells, mAb 1 µg/ml
[21] = target: human class I histocompatibility antigens (HLA-A,B,C) (human); assay: indirect immunofluorescence flow cytometry on DU4475 breast tumour cells, mAb 1 µg/ml
[22] = target: human class I histocompatibility antigens (HLA-A,B,C) (human); assay: indirect immunofluorescence flow cytometry on MKN45 gastric tumour cells, mAb 1 µg/ml
[23] = target: human class I histocompatibility antigens (HLA-A,B,C) (human); assay: indirect immunofluorescence flow cytometry on OAW42 ovarian tumour cells, mAb 1 µg/ml
[24] = target: human class I histocompatibility antigens (HLA-A,B,C) (human); assay: indirect immunofluorescence flow cytometry on OVCAR3 ovarian tumour cells, mAb 1 µg/ml
[25] = target: human class I histocompatibility antigens (HLA-A,B,C) (human); assay: indirect immunofluorescence flow cytometry on OVCAR4 ovarian tumour cells, mAb 1 µg/ml
[26] = target: human class I histocompatibility antigens (HLA-A,B,C) (human); assay: indirect immunofluorescence flow cytometry on C170 colorectal tumour cells, mAb 1 µg/ml
[27] = target: human class I histocompatibility antigens (HLA-A,B,C) (human); assay: indirect immunofluorescence flow cytometry on HT29 colorectal tumour cells, mAb 1 µg/ml
[28] = target: human class I histocompatibility antigens (HLA-A,B,C) (human); assay: indirect immunofluorescence flow cytometry on OVCA433 ovarian tumour cells, mAb 1 µg/ml
[29] = target: human class I histocompatibility antigens (HLA-A,B,C) (human); assay: indirect immunofluorescence flow cytometry on ASPC1 pancreatic tumour cells, mAb 1 µg/ml
[30] = target: human class I histocompatibility antigens (HLA-A,B,C) (human); assay: indirect immunofluorescence flow cytometry on Panc1 pancreatic tumour cells, mAb 1 µg/ml
[31] = target: human class I histocompatibility antigens (HLA-A,B,C) (human); assay: indirect immunofluorescence flow cytometry on MB-MDA-231 breast tumour cells, mAb 1 µg/ml
[32] = target: human class I histocompatibility antigens (HLA-A,B,C) (human); assay: indirect immunofluorescence flow cytometry on Colo201 colorectal tumour cells, mAb 1 µg/ml
[33] = target: human class I histocompatibility antigens (HLA-A,B,C) (human); assay: indirect immunofluorescence flow cytometry on Colo205 colorectal tumour cells, mAb 1 µg/ml
[34] = target: human class I histocompatibility antigens (HLA-A,B,C) (human); assay: indirect immunofluorescence flow cytometry on Colo205 cells; W6/32 at 5 µg/ml [c]
[35] = target: human class I histocompatibility antigens (HLA-A,B,C) (human); assay: indirect immunofluorescence flow cytometry on Colo205 cells; mouse IgG at 5 µg/ml [d]
[36] = target: Polyvalent Le^a-HSA; assay: SPR (Biacore X), polyvalent Le^a-HSA coupled to CM5 chip, mAb in flow

Sequence of UniProt P08174 (P08174 35-353 limits assumed): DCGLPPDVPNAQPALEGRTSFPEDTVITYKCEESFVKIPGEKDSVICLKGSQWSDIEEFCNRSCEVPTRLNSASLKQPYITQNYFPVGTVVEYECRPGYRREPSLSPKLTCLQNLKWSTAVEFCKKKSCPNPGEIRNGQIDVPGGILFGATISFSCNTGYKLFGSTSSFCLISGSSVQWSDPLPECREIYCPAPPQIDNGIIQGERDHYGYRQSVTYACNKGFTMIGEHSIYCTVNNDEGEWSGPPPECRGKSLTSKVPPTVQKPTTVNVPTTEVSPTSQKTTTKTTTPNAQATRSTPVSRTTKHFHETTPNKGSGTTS

Molecule: W6/32 (antibody)
Gm value [17]: 109 Gm
Gm value [18]: 1560 Gm
Gm value [19]: 515 Gm
Gm value [20]: 33.5 Gm
Gm value [21]: 1360 Gm
Gm value [22]: 15.4 Gm
Gm value [23]: 318 Gm
Gm value [24]: 633 Gm
Gm value [25]: 16.4 Gm
Gm value [26]: 16.5 Gm
Gm value [27]: 1160 Gm
Gm value [28]: 6790 Gm
Gm value [29]: 1780 Gm
Gm value [30]: 20.1 Gm
Gm value [31]: 758 Gm
Gm value [32]: 603 Gm
Gm value [33]: 1300 Gm
Gm [34]: 2600

Molecule: IgG Isotype control (antibody)
Gm [35]: 25.4

B2: FG88.7 mAb (antibody, V domains shown)
VH: EVKLEESGGGLVQPGGSMKLSCVASGFTFSDAWMNWVRQSPEKGLEWVAEIRSKAINPAIYYAESVKGRFTILRDDSKSSVYLQMNSLRAEDTGIYYCSRSTMITTRDPSRYFDVWGAGTTVTVSS
VL: DIQMTQSPTSLSASVGETVTITCRTSENIHNFLTWYQQKQGKSPQVLVYNAKTLPDGVPSRFSGSGSETQYSLKINSLQPEDFGTYYCQHFWSSPWTFGGGTKLEIKR
Kd [36]: 0.34 nM
koff [36]: 5.8e-05 s⁻¹
kon [36]: 170000 M⁻¹ s⁻¹

Continued, values first:

Gm value [1]: 28.1 Gm
Gm value [2]: 1880 Gm
Gm value [3]: 461 Gm
Gm value [4]: 903 Gm
Gm value [5]: 231 Gm
Gm value [6]: 401 Gm
Gm value [7]: 412 Gm
Gm value [8]: 328 Gm
Gm value [9]: 858 Gm
Gm value [10]: 916 Gm
Gm value [11]: 686 Gm
Gm value [12]: 7010 Gm
Gm value [13]: 472 Gm
Gm value [14]: 1160 Gm
Gm value [15]: 22.3 Gm
Gm value [16]: 44.4 Gm
Molecule: 791T/36 (antibody)

Kd [36]: 0.63 nM
koff [36]: 0.000118 s⁻¹
kon [36]: 190000 M⁻¹ s⁻¹
B1: FG88.2 mAb (antibody, V domains shown)
VH: EVKLEESGGGLVQPGGSMKLSCAASGFTFSDAWMNWVRQSPEKGLEWVAEIRSKVINPAIYYAESVKERFTILRDDSKSSVYLQMNSLRAEDTGIYYCSRSTMITTRDPSRYFDVWGAGTTVTVSS
VL: DIQMTQSPTSLSASVGETVTITCRTSENIHNFLTWYQQKQGKSPQVLVYNAKTLPDGVPSRFSGSGSGTQYSLKINSLQPEDFGTYYCQHFWSSPWTFGGGTKLEIKR
